Source: IntAct's records for PubMed 21505417

B1: Intraflagellar transport protein 25 (Chlamydomonas reinhardtii), B8LIX8 (parent)
chain: MKDYAREENGGLVVMASCSDERFPPENMLDGKDNTFWVTTGMFPQEFVLRLESCIRVSKITTLSLNVRKLAVEKCDQDKPDQFEKVFEVELANRGDRLQTEVHQVNIRAKYLKFILLQGHGEFATVNRVSVVGGDDDGGGYDEPGGGYGSMQRQPSMGYGGGGGSAATGFAADPGNAAAGGGGGFEDEF
partner: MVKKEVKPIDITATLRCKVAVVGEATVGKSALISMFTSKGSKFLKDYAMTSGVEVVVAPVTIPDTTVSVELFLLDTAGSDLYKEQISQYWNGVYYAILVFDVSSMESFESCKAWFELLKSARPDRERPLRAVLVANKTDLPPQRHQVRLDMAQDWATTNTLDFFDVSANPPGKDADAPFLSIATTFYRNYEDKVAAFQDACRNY

Variants of: B1
Details: with ift27_chlre IFT27, A8HN58

| Variant | effect of a mutation on the interaction |
| --- | --- |
| MKDYAREENGGLVVMASCSDERFPPENMLDGKDNTFWVTRGMFPQEFVLRLESCIRVSKITTLSLNVRKLAVEKCDQDKPDQFEKVFEVELANRGDRLQTEVHQVNIRAKYLKFILLQGHGEFATVNRVSVVGGDDDGGGYDEPGGGYGSMQRQPSMGYGGGGGSAATGFAADPGNAAAGGGGGFEDEF [T40R] | disrupting interaction |
| MKDYAREENGGLVVMASCSDERFPPENMLDGKDNTFWRTTGMFPQEFVLRLESCIRVSKITTLSLNVRKLAVEKCDQDKPDQFEKVFEVELANRGDRLQTEVHQVNIRAKYLKFILLQGHGEFATVNRVSVVGGDDDGGGYDEPGGGYGSMQRQPSMGYGGGGGSAATGFAADPGNAAAGGGGGFEDEF [V38R] | disrupting interaction |
| MKDYAREENGGLVVMASCSDERFPPENMLDGKDNTFWVTTGMFPQEFVLRLESCIRVSKITTLSLNVRKLAVEKCDQDKPDQFEKVFEVELANRGDRLQTEVHQVNIRAKYLKFILLQGHGEFAEVNRVSVVGGDDDGGGYDEPGGGYGSMQRQPSMGYGGGGGSAATGFAADPGNAAAGGGGGFEDEF [T125E] | disrupting interaction |
